# Experiments:
# [1] = target: mutated GST-p38 MAP kinase (AGF), Q16539
# [2] = target: GST-p38 MAP kinase (wild-type, TGY), Q16539
# Chain of GST-p38 MAP kinase (wild-type, TGY), Q16539 (Q16539 whole entry): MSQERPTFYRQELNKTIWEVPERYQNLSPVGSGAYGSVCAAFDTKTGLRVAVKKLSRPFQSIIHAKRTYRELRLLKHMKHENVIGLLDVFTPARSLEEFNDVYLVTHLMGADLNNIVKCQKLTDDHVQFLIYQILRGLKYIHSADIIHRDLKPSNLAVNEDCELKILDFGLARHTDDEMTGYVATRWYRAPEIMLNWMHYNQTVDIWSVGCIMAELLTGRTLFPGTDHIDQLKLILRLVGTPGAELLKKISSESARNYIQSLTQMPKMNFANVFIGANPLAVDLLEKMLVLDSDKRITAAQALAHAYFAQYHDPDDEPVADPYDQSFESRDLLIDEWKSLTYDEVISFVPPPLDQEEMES
# Chain of mutated GST-p38 MAP kinase (AGF), Q16539 (Q16539 whole entry, looked up, change not shown): as the sequence (Q16539 whole entry) above
# Chain of GST-JNK1, P45983 (P45983 other isoform, or with tags, fused parts or gaps): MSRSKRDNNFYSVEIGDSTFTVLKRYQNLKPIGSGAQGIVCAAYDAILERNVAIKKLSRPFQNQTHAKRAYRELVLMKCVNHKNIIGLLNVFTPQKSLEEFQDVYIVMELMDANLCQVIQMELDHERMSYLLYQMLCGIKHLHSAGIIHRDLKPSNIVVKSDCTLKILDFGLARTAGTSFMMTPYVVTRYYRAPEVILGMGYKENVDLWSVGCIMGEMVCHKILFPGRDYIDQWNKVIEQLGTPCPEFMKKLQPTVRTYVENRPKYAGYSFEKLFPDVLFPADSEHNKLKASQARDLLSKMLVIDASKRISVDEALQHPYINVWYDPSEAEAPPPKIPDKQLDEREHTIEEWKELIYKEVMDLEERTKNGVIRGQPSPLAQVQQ
# Chain of GST-ERK2 [GST: P08515] (P08515 whole entry, looked up): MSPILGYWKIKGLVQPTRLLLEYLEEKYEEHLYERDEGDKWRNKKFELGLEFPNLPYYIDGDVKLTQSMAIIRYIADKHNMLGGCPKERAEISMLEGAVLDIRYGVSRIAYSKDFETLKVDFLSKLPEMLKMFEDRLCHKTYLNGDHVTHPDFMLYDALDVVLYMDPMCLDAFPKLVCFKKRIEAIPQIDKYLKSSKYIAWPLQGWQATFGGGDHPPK
protein,measurement,setting,value
GST-MKK3 (protein) MSKPPAPNPTPPRNLDSRTFITIGDRMFEVEADDLVTISELGRGAYGVVEKVRHAQSGTIMAVKRIRATVNSQEQKRLLMDLDINMRTVDCFYTVTFYGALFREGDVWICMELMDTSLDKFYRKVLDKNMTIPEDILGEIAVSIVRALEHLHSKLSVIHRDVKPSNVLINKEGHVKMCDFGISGYLVDSVAKTMDAGCKPYMAPERINPELNQKGYNVKSDVWSLGITMIEMAILRFPYESWGTPFQQLKQVVEEPSPQLPADRFSPEFVDFTAQCLRKNPAERMSYLELMEHPFFTLHKTKKTDIAAFVKKILGEDS,"phosphorylation of the substrate protein (in vitro kinase assay, SDS-PAGE, autoradiography)",[1],Only phosphorylation of wild-type p38 was observed
same,"phosphorylation of the substrate protein (in vitro kinase assay, [γ-32P]ATP, SDS-PAGE, autoradiography)",GST-ERK2 [GST: P08515],"MKK3 phosphorylated p38 MAP kinase, but not JNK1 or ERK2"
same,"phosphorylation of the substrate protein (in vitro kinase assay, SDS-PAGE, autoradiography)",[2],Only phosphorylation of wild-type p38 was observed
same,"phosphorylation of the substrate protein (in vitro kinase assay, [γ-32P]ATP, SDS-PAGE, autoradiography)",[2],"MKK3 phosphorylated p38 MAP kinase, but not JNK1 or ERK2"
same,"phosphorylation of the substrate protein (in vitro kinase assay, [γ-32P]ATP, SDS-PAGE, autoradiography)","GST-JNK1, P45983","MKK3 phosphorylated p38 MAP kinase, but not JNK1 or ERK2"

# Source: US20050272077
